The record followed here is patent publication US20050227220A1, “Compositions and Methods for Evaluating and Designing Nuclear Receptor Ligands that Modulate Co-Regulator Affinity” (priority 2002, published 2005).

The labels stand for the following.
B1: SRC-1 peptide (amino acids 676-700) (peptide)
peptide: Biotin-CPSSHSSLTERHKILHRLLQEGSPS
modifications: also: fluorescent label in polarization assay, not given here
notes: also called SRC-1 (LCD2) 676-700; SRC peptide
B2: GAL4-NcoR (2239-2300) (other)
chain: MKLLSSIEQACDICRLKKLKCSKEKPKCAKCLKNNWECRYSPKTKRSPLTRAHLTEVESRLERLEQLFLLIFPREDLDMILKMDSLQDIKALLTGLFVQDNVNKDAVTDRLASVETDMPLTLRQHRISATSSSEESSNKGQRQLTVSPAVTTSGSVSSRGHSFADPASNLGLEDIIRKALMGSFDDKVEDHGVVMSQPMGVVPGTANTS
notes: range 1-147;range 2239-2300; also called GAL4-NCoR 2239 to 2300
B3: VP16-human PPARγ2 (full length) (other)
chain: LSTAPPTDVSLGDELHLDGEDVAMAHADALDDFDLDMLGDGDSPGPGFTPHDSAPYGALDMADFEFEQMFTDALGIDEYGGMGETLGDSPIDPESDSFTDTLSANISQEMTMVDTEMPFWPTNFGISSVDLSVMEDHSHSFDIKPFTTVDFSSISTPHYEDIPFTRTDPVVADYKYDLKLQEYQSAIKVEPASPPYYSEKTQLYNKPHEEPSNSLMAIECRVCGDKASGFHYGVHACEGCKGFFRRTIRLKLIYDRCDLNCRIHKKSRNKCQYCRFQKCLAVGMSHNAIRFGRMPQAEKEKLLAEISSDIDQLNPESADLRALAKHLYDSYIKSFPLTKAKARAILTGKTTDKSPFVIYDMNSLMMGEDKIKFKHITPLQEQSKEVAIRIFQGCQFRSVEAVQEITEYAKSIPGFVNLDLNDQVTLLKYGVHEIIYTMLASLMNKDGVLISEGQGFMTREFLKSLRKPFGDFMEPKFEFAVKFNALELDDSDLAIFIAVIILSGDRPGLLNVKPIEDIQDNLLQALELQLKLNHPESSQLFAKLLQKMTDLRQIVTEHVQLLQVIKKTETDMSLHPLLQEIYKDLY
B5: TRβ ligand binding domain (receptor, UniProt P10828 202-461, looked up)
chain: EELQKSIGHKPEPTDEEWELIKTVTEAHVATNAQGSHWKQKRKFLPEDIGQAPIVNAPEGGKVDLEAFSHFTKIITPAITRVVDFAKKLPMFCELPCEDQIILLKGCCMEIMSLRAAVRYDPESETLTLNGEMAVTRGQLKNGGLGVVSDAIFDLGMSLSSFNLDDTEVALLQAVLLMSSDRPGLACVERIEKYQDSFLLAFEHYINYRKHHVTHFWPKLLMKVTDLRMIGACHASRFLHMKVECPTELFPPLFLEVFED
notes: also called Thyroid Receptor LBD; TRβ LBD

Primed or numbered codes have the meaning given here. No end group written: not given here. *: point of attachment. fluorescein″ = fluorescein label attached to the peptide N-terminus; Biotin = O=C1N[C@H]2[C@H](CS[C@H]2CCCCC(=O)*)N1

Assay [1] deals with Fluoroscein-SMRT ID-C peptide. Briefly: fluorescence polarization. Background: In fluorescence polarisation assays a small probe gives low polarisation when free and higher when bound to something large.
Assay [2] has as its target Fluoroscein-NCOR ID-C peptide (NCoR amino acids 2251-2275). The experiment in a line: fluorescence polarization.
The target of assay [3] is Fluoroscein-SMRT ID-C peptide. The experiment in a line: fluorescence polarization, 10 nM fluorescein peptide, LBD titrated, no ligand.
For assay [4], the target named is Fluoroscein-NCOR ID-C peptide (NCoR amino acids 2251-2275). Described as above.
Assay [5] has as its target B5. The assay is described as above.
Assay [6] has as its target T1, RARα ligand binding domain (amino acids 146-432) (UniProt P10276 146-432).
T1 construct: range 146-432; not shown: His-tag
T1 sequence (looked up): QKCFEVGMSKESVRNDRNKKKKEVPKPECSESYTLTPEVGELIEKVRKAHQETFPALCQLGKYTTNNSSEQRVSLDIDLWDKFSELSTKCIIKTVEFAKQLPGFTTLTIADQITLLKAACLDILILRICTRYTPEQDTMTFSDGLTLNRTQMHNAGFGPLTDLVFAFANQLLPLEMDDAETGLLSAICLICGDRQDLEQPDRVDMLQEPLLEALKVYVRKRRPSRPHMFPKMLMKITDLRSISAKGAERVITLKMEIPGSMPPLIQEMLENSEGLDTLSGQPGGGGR
The assay is described as above.

The target of assay [7] is T2, human PPARδ ligand binding domain (amino acids 139-441) (human, UniProt Q03181 139-441, Biotinylated (site not stated) in the FRET assays; unlabelled in fluorescence polarization and SPR.).
T2 construct: placed at the N-terminus here; Biotinylated for FRET; also called PPARδ LBD
T2 sequence: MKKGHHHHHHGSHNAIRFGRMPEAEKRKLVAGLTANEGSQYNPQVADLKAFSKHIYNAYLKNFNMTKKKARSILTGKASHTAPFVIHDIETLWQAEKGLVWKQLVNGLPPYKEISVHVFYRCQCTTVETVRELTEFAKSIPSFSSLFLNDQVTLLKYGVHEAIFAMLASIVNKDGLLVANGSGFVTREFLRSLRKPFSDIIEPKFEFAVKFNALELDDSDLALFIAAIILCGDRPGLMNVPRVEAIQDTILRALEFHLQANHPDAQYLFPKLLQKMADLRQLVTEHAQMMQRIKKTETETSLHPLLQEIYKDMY
Described as above.

Assay [8] addresses T3, human PPARγ ligand binding domain (amino acids 206-477) (human, UniProt P37231-2 206-477).
T3 construct: range 206-477; placed at the N-terminus here; Biotinylated for FRET; also called PPARγ LBD
T3 sequence: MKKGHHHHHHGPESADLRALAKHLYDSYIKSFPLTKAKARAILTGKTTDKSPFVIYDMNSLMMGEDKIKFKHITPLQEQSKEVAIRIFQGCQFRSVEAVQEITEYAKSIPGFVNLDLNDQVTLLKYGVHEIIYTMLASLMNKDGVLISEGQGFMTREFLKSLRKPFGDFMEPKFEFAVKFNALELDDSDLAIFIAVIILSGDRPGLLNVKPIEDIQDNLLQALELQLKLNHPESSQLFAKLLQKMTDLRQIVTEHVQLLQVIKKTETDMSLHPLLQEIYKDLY
The description is as above.

Assay [9] concerns the target T4, RXRα ligand binding domain (amino acids 225-462) (UniProt P19793 225-462).
T4 construct: range 225-462; Biotinylated for FRET; also called RXRα LBD; not shown: His-tag
T4 sequence (looked up): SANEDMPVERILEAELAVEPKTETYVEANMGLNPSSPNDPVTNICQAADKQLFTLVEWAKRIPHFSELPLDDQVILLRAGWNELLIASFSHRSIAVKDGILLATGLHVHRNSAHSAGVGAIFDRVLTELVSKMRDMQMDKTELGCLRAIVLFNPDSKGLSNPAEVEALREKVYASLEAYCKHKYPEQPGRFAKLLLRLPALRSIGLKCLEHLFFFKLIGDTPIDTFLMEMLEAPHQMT
The description is as above.

For assay [10], the target named is T5, human PPARα ligand binding domain (amino acids 192-468) (human, UniProt Q07869 192-468).
T5 construct: range 192-468; placed at the N-terminus here; Biotinylated for FRET; also called PPARα LBD
T5 sequence: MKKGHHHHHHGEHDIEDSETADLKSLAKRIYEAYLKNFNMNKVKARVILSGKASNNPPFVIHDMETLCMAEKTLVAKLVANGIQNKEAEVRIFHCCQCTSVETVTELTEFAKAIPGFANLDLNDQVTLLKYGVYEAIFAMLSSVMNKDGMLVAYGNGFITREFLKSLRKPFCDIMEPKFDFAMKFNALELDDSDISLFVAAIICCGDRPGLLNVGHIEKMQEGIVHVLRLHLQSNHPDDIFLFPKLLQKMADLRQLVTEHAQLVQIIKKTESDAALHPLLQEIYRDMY
The assay is described as above.

Assay [11] deals with T6, ERβ ligand binding domain (amino acids 257-530) (UniProt Q92731 257-530).
T6 construct: range 257-530; not shown: His-tag
T6 sequence (Q92731 257-530 limits assumed): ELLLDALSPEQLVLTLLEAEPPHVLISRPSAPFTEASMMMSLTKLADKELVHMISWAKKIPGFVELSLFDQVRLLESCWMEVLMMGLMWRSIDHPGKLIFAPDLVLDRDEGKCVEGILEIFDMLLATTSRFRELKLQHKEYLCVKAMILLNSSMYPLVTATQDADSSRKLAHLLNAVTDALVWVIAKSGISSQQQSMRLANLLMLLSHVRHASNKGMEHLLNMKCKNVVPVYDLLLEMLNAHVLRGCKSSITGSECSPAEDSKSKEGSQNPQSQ
The assay is described as above.

Assay [12] has as its target B5. Briefly: fluorescence polarization, apparent affinity, no ligand.
For assay [13], the target named is T7, VP16-human PPARα (full length) (human, UniProt P06492 410-490; Q07869 1-468).
T7 construct: also called VP16 full length PPARα
Briefly: mammalian two-hybrid in CV-1 cells.

In assay [14] the target is B3. The experiment in a line: mammalian two-hybrid in CV-1 cells.
Another assay addresses GAL4-CBP (1-115) (UniProt P04386 1-147; P45481 1-115). The experiment in a line: cell-based or functional assay.
For the assay “GAL4-NcoR (2239-2300)”, the target named is B2. The experiment in a line: cell-based or functional assay.
Assay [15] deals with T8, biotin-NCOR ID-C peptide (NCoR amino acids 2251-2275) (N-terminal biotin).
T8 construct: also called NCOR-derived co-repressor peptide
T8 peptide: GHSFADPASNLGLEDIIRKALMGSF
The experiment in a line: time-resolved FRET (ratio 665 nm/620 nm), biotinylated NCOR (2251-2275) peptide on europium streptavidin with APC-labeled LXRα LBD, test compound at 2 µM; normalized to % inhibition or activation.

In assay [16] the target is T9, Fluoroscein-NCOR ID-C peptide (NCoR amino acids 2251-2275) (N-terminal fluorescein).
T9 construct: also called NCOR peptide; NCoR 2251-2275
T9 peptide: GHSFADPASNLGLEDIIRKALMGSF
Briefly: fluorescence polarization, no ligand.

The target of assay [17] is T9, Fluoroscein-NCOR ID-C peptide (NCoR …). Briefly: fluorescence polarization, with agonist ligand T3.
In assay [18] the target is B1. The experiment in a line: fluorescence polarization, with agonist ligand T3.

As for “RXRαΔAF2 ligand binding domain (amino acids 225-446) (from UniProt P19793 225-446) (receptor)”, the fold greater affinity against RXRα ligand binding domain in assay [1] and in assay [2] was 100 fold throughout. In addition, the results for the Kd in assay [3] and in [4] were 250 nM and 390 nM, respectively.
Take {fluorescein″}-TNMGLEAIIFKALMGKYDQWEE [Fluoroscein-SMRT ID-C peptide]: the Kd in assay [5] was 740 nM; in assay [6] it was 2100 nM; in assay [7], 7.7 µM; in [8], 1800 nM; in [9], 20 µM; in [10] it was 6.1 µM. Also, in assay [11], the Kd was determined as 30 µM.
As to B1, the Kd in [12] is 7.1 µM.
For B2, the binding result in [13] and in assay [14] was “binds” throughout.
Consider B3, for which, in the assay with GAL4-CBP (1-115), the “mammalian two-hybrid reporter, fold association with GW1929 and GW7845” value is roughly 3 fold. Besides, the “mammalian two-hybrid reporter, fold dissociation with GW1929 and GW7845” value in the assay with GAL4-NcoR (2239-2300) was roughly 3 fold.

B4: LXR alpha LBD (receptor, not shown: small tags and cut ends)
chain: EEEQAHATSLPPRASSPPQILPQLSPEQLGMIEKLVAAQQQCNRRSFSDRLRVTPWPMAPDPHSREARQQRFAHFTELAIVSVQEIVDFAKQLPGFLQLSREDQIALLKTSAIEVMLLETSRRYNPGSESITFLKDFSYNREDFAKAGLQVEFINPIFEFSRAMNELQLNDAEFALLIAISIFSADRPNVQDQLQVERLQHTYVEALHAYVSIHHPHDRLMFPRMLMKLVSLRTLSSVHSEQVFALRLQDKKLPPLLSEIWDVHE
modifications: Biotinylated and bound to streptavidin-APC in the assay; His-tag not written
notes: also called LXRα
With B4, the binding result in assay [15] is given as “binds”.
Turning to B5, the “fold greater affinity against the coactivator peptide (SRC-1)” value in assay [16] was found to be 10 fold. Further, the “fold decrease in affinity with T3 against no ligand” value in assay [17] was 9 fold. In assay [18], the “fold greater affinity against the co-repressor peptide (NCoR ID-C)” value was 48 fold and the “fold increase in affinity with T3 against no ligand” value turned out to be 50 fold.
